Common to all, as to test: EMSA
Data set [1] has as its target T1, WT mDHX36 (46-982) (Mus musculus, UniProt B2RQS6 46-982).
T1 sequence: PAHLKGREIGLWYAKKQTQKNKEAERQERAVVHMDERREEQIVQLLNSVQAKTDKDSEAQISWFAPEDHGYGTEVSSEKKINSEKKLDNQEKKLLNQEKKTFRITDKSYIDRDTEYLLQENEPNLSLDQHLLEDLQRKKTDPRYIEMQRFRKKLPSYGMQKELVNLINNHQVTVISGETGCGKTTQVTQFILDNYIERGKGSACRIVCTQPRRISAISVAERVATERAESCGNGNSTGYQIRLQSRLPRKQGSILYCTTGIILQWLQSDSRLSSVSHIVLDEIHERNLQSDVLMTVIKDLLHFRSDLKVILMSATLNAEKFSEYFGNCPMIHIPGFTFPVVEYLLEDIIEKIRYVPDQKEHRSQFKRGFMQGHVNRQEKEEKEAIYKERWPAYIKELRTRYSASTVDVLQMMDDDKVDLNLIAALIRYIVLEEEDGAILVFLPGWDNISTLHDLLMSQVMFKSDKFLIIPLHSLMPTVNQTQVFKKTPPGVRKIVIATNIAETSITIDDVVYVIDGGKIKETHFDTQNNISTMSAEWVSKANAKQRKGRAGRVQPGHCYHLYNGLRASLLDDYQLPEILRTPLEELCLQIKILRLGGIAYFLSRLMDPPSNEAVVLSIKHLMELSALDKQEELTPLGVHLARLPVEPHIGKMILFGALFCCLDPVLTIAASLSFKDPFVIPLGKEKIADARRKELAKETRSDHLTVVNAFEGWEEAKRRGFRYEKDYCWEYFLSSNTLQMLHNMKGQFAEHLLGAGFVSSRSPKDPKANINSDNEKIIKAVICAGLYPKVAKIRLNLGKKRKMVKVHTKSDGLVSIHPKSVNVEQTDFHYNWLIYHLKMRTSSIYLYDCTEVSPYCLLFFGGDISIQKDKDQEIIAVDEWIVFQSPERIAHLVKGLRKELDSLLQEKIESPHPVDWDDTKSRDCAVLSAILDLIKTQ

In another data set the target is T2, mDHX36 delta-OB-fold (Mus musculus, UniProt B2RQS6 46-834+895-981, internal_change).
T2 sequence: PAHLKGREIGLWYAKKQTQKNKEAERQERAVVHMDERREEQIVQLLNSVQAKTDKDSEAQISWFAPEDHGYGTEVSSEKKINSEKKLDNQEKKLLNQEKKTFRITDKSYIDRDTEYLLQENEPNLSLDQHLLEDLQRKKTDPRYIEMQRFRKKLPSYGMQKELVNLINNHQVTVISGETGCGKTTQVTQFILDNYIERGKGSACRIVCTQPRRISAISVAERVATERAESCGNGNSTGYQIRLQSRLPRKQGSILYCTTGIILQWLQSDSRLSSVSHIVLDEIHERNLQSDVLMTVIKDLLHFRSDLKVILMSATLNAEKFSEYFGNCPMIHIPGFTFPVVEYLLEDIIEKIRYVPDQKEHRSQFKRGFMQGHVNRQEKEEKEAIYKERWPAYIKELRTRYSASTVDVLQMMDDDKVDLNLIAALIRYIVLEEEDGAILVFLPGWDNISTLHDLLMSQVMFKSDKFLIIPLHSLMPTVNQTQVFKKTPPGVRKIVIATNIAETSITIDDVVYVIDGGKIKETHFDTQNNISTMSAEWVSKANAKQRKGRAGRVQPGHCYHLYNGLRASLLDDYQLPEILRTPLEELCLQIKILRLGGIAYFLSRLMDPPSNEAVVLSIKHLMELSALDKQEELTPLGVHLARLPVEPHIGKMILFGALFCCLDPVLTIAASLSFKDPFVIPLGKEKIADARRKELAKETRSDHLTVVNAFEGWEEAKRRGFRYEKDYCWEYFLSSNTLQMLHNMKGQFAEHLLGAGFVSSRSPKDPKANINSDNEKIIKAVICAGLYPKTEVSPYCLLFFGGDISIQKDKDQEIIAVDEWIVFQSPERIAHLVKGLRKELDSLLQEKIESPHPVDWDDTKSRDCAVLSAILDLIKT

Data set [2] deals with T1, WT mDHX36 (46-982). The source holds these as a separate data set.

Where two headings read alike, the source gives them in different places.

For UUAGGGGGAGGGGGAUGGGGGAGGGGGAAAAAAAAAAAAAAA (structured_RNA) [GQI (GQ1) intramolecular RNA G-quadruplex], the binding result with WT mDHX36 (46-982) [1] is reported as “binds”. For the same molecule, the “apparent K (half saturation)” value in the data set with mDHX36 delta-OB-fold was around 50 nM.

B1: RNA duplex R16/R31 (dsRNA)
RNA 1: AGCACCGUAAAGACGC
RNA 2: GCGUCUUUACGGUGCUAAAAAAAAAAAAAAA
Take B1: in the data set with WT mDHX36 (46-982) [2], the binding result was “binds”.

These data come from publication PMC7225076.
